The target in the assay is T1, GH蛋白 (垂体瘤组织中的内源GH) (human, UniProt P01241 27-217).
T1 construct: Endogenous antigen detected by immunohistochemistry in pituitary tumour samples; also called 人GH蛋白
Description: immunohistochemistry on 9 pituitary tumour samples.

T1 sequence (P01241 27-217 limits assumed): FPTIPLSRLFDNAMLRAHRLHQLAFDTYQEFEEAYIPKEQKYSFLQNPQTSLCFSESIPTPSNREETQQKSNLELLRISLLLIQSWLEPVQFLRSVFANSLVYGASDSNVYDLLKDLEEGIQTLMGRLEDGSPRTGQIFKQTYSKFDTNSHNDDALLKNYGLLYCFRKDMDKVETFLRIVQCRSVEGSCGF

B1: 抗GH蛋白单克隆抗体(9D5D2A9) (antibody, V domains shown)
VH: QVQLKESGPGLVAPSQSLSITCTVSGFSLTNYGIHWVRQPPGKGLEWLGLIWSGGSTKYNSALMSRLSISRDNSKSQVFLKMNSLQSDDTAMYYCVRDELYAYWGQGTLVTVSA
VL: DIVMTQSHKFMSTSVGDRVSITCKASQDVGPTVAWYQQKPGQSPKLLIYWASTRHTGVPDRFTGSGYGTDFTLTISNVQSEDLADYFCQQYSSYPFTFGSGTKLEIK
notes: also called GH单克隆抗体; CGMCC NO.22315
B1: the binding result is on record as “binds”.

The record behind these values is CN113845595A (FUZHOU MAIXIN BIOTECHNOLOGY DEV CO LTD, dated 2021).
